The source of these data is publication PMC3946754, “Two-Stage pH Control Strategy Based on the pH Preference of Acetoin Reductase Regulates Acetoin and 2,3-Butanediol Distribution in Bacillus subtilis” (PLoS ONE, 2014).

Substrate in the data set “purified protein”: CC(O)C(C)O
In words: purified protein. To be noted: oxidation, co-substrate NAD+ (standard assay 1.2 mM NAD+, pH 8.5, 25°C preincubation), stereoisomer not told, printed kcat/Km does not fit kcat and Km.

Substrate in data set [1]: NC(=O)c1ccc[n+]([C@@H]2O[C@H](COP(=O)(O)OP(=O)(O)OC[C@H]3O[C@@H](n4cnc5c(N)ncnc54)[C@H](O)[C@@H]3O)[C@@H](O)[C@H]2O)c1
Put plainly: NAD+ reduction assay, Lineweaver-Burk plot. The data set is classed as biochemical, Bacillus subtilis. Conditions: oxidation, co-substrate 2,3-butanediol (standard assay 10 mM, pH 8.5), printed kcat/Km does not fit kcat and Km, varied: cofactor.

Substrate in data set [2]: CC(=O)C(C)O
In words: NADH oxidation assay, Lineweaver-Burk plot. The class given is biochemical, Bacillus subtilis. Conditions: reduction, co-substrate NADH (standard assay 0.2 mM NADH, PBS pH 6.5, 25°C preincubation), stereoisomer not told, 25.0 °C.

Substrate in data set [3]: NC(=O)C1=CN([C@@H]2O[C@H](COP(=O)(O)OP(=O)(O)OC[C@H]3O[C@@H](n4cnc5c(N)ncnc54)[C@H](O)[C@@H]3O)[C@@H](O)[C@H]2O)C=CC1
Put plainly: NADH oxidation assay, Lineweaver-Burk plot. The data set is classed as biochemical, Bacillus subtilis. Conditions: reduction, co-substrate acetoin (standard assay 10 mM, pH 6.5), printed kcat/Km does not fit kcat and Km, varied: cofactor.

B1: AR/BDH (acetoin reductase/2,3-butanediol dehydrogenase) (Bacillus subtilis subsp. subtilis str. 168) (protein)
chain: MKAARWHNQKDIRIEHIEEPKTEPGKVKIKVKWCGICGSDLHEYLGGPIFIPVDKPHPLTNETAPVTMGHEFSGEVVEVGEGVENYKVGDRVVVEPIFATHGHQGAYNLDEQMGFLGLAGGGGGFSEYVSVDEELLFKLPDELSYEQGALVEPSAVALYAVRSSKLKAGDKAAVFGCGPIGLLVIEALKAAGATDIYAVELSPERQQKAEELGAIIVDPSKTDDVVAEIAERTGGGVDVAFEVTGVPVVLRQAIQSTTIAGETVIVSIWEKGAEIHPNDIVIKERTVKGIIGYRDIFPAVLSLMKEGYFSADKLVTKKIVLDDLIEEGFGALIKEKSQVKILVRPN
notes: full length, C-terminal His6 tag (from primer, not reported cut); pMA5-bdhA expressed in B. subtilis JNA 3-10; Ni-NTA and Superdex 200; subunit 38-39 kDa by SDS-PAGE
With B1, in the data set “purified protein”, the Km (in general, the substrate concentration at which the rate is half of its maximum) was found to be 260 ± 9 µM; the Vmax (usually the top rate of the reaction or transport when substrate is in excess) turned out to be 2.34 µM/min; the kcat (commonly the maximal rate divided by the concentration of active sites) was found to be 0.00233 s⁻¹. Besides, in data set [1], the Km worked out at 80 ± 2 µM, the Vmax came out at 14 µM/min and the kcat was 0.0232 ± 0.000267 s⁻¹. In addition, in data set [2], the Km was found to be 160 ± 5 µM, the Vmax is 5.54 µM/min, the turnover number (kcat) came out at 0.00567 ± 0.0002 s⁻¹ and the kcat/Km (commonly the second-order rate constant that governs catalysis at low substrate concentration) was 35.5 M⁻¹ s⁻¹. Further, in data set [3], the Michaelis-Menten constant (Km) came out at 40 ± 1 µM, the Vmax came out at 14.2 µM/min and the kcat was found to be 0.0235 ± 0.00035 s⁻¹.
